The source of these data is patent publication US20250277038A1 (SHANGHAI JEMINCARE PHARMACEUTICAL, published 2025).

The chains are these.
B1: anti-human PD-L1 monoclonal antibody 50G2-3 (antibody, V domains shown)
VH: EVQLVESGGGLVQPGRSLKLSCVASGFTFSNFWMTWIRQAPGKGLEWVASITHSGGITYYPDSVKGRFTISRDDAKSTLYLQMNSLRSEDTATYYCSRDPTEAPFDYWGQGVMVTVSS
VL: DIQMTQSPPSLSASLGDQVTITCQASQNINNYIAWYQQKPGKAPRQLIRYTSTLVSGTPSRFSGSGSGKDYSFSISNVESEDIASYYCLQYDNVPNTFGAGTKLELK
notes: also called murine hybridoma clone 50G2-3
B2: 1910G2HzL7H7 (antibody, V domains shown)
VH: B1 VH with R16G, K19R, V23A, I37V, P61A, A75S, S88A, T93V, V112T, M113L
VL: DIQMTQSPSSLSASVGDRVTITCQASQNINNYIAWYQQKPGKAPKQLIRYTSTLVSGVPSRFSGSGSGKDYTFTISSLQPEDIATYYCLQYDNVPNTFGQGTKLEIK
notes: Only the variable domains are tied to the name; Full chains are not tied to the name; also called humanized antibody 1910G2HzL7H7; 1910G2HzL7 + 1910G2HzH7
B3: 1910G2HzL9H9 (antibody, V domains shown)
VH: EVQLVESGGGLVQPGGSLRLSCAASGFTFSNFWMSWVRQAPGKGLEWVASITHSGGITYYADSVKGRFTISRDDSKNTLYLQMNSLRAEDTAVYYCSRDPTEAPFDYWGQGTLVTVSS
VL: B2 VL with Y71F
notes: Only the variable domains are tied to the name; Full chains are not tied to the name; also called humanized antibody 1910G2HzL9H9; 1910G2HzL9 + 1910G2HzH9
B4: 1910G2HzL4H4 (antibody, V domains shown)
VH: B3 VH with S35T, A61P
VL: B2 VL
notes: Only the variable domains are tied to the name; Full chains are not tied to the name; also called humanized antibody 1910G2HzL4H4; 1910G2HzL4 + 1910G2HzH4
B5: 1910G2HzL3H3 (antibody, V domains shown)
VH: B3 VH with A61V, D74N, S75A, N77S, T78S, T112V, L113M
VL: B2 VL with V58T, S77N
notes: Only the variable domains are tied to the name; Full chains are not tied to the name; also called humanized antibody 1910G2HzL3H3; 1910G2HzL3 + 1910G2HzH3
B6: 1910G2HzL2H2 (antibody, V domains shown)
VH: B3 VH with S35T, A61V, S75A, N77S, T78S
VL: B2 VL
notes: Only the variable domains are tied to the name; Captured on an AHC sensor and detected with anti-human secondary antibody; also called humanized antibody 1910G2HzL2H2; 1910G2HzL2 + 1910G2HzH2

Broadly, the Kd is the constant that tells how readily two partners part at equilibrium. A low value points to a tighter complex. Usually koff stands for a measure of how fast the partners let go of each other. As a reminder, the kon is a measure of how fast the partners come together. A high value points to fast association.

Changes are numbered by the printed parent chain.

In the first assay the target is T1, human PD-L1 protein on HEK293 cell (human, UniProt Q9NZQ7 19-290).
T1 construct: whole, on cells; also called HEK293-hPD-L1; HEK293-PD-L1
T1 sequence (Q9NZQ7 19-290): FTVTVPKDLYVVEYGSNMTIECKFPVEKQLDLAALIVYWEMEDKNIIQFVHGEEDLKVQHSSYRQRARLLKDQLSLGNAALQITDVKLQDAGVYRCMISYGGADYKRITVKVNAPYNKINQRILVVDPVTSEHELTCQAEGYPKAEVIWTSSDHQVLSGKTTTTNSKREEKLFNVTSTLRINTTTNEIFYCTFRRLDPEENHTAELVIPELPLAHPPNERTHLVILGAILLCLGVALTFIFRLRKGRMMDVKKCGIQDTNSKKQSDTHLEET
The experiment in a line: flow cytometry screening on HEK293-PD-L1 cells. The method, then: Clones that specifically bind to HEK293-PD-L1 cells and can simultaneously block the binding of receptor PD-1 to HEK293-hPD-L1 cells were screened from the fusion plate by flow cytometer and subcloning was carried out by limited dilution method, and finally a monoclonal that can secrete specific antibodies was screened. Monoclonal antibodies were obtained by small-scale production and purification in serum-free medium for subsequent identification, including the detection of the binding ability of antibodies to HEK293-PD-L1, the function of blocking binding of PD-1 to HEK293-hPD-L1 cell, and the mixed lymphocyte experiment to finally obtain candidate anti-human PD-L1 monoclonal antibody 50G2-3. The sequences of the variable regions of murine hybridoma clone 50G2-3 obtained by monoclonal antibody sequencing is as follows: […]
In general terms: Flow cytometry measures light scatter and fluorescence of single cells or particles in a stream.
In the case of B1, the binding result is listed as “binds”.

In a further assay the target is T2, human PD-L1 (Acro, Catalog Number: H5229) (human, UniProt Q9NZQ7 19-238).
T2 construct: Soluble antigen in the BLI assay; also called antigen
T2 sequence (Q9NZQ7 19-238 limits assumed): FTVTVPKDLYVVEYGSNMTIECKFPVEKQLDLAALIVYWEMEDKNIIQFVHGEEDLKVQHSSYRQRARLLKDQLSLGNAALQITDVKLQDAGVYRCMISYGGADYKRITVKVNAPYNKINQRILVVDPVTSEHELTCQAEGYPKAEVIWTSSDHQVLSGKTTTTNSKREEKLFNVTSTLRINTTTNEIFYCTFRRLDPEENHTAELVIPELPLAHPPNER
The experiment in a line: BLI, Octet RED96e, antibody on AHC sensor, antigen 100 nM, 1:1 fit. The procedure:
(2) Detection of samples on machines (Octet Data Acquisition 11.1.0.11): First, the sample was added into a 96-well plate (Greiner bio-one, 655209) with a system of 200 μL/well. Then the software parameters were set, the plate temperature was set to 30° C., and the frequency of collecting standard dynamic signals was 5.0 HZ. Next, the AHC sensor (Fortébio, Catalog Number: 18-0015) was pre-wetted with 1xPBST for 10 minutes, and then the sample was detected on the instrument. Each cycle incluedes the following steps: 1) immersing in buffer for 60 seconds; 2) detecting whether the antigen nonspecifically binding to the sensor; 3) regeneration of 10 mM glycine solution with pH 1.7; 4) immersing in the buffer for 60 seconds; 5) immobilizing the antibody on the sensor for 20 seconds; 6) immersing the sensor in the buffer for 180 seconds; 7) the antigen binding to the antibody for 180 seconds; 8) dissociating the antigen from the antibody for 10 minutes; 9) regenerating the sensor.
In general terms: Biolayer interferometry detects binding as a change in optical thickness at a sensor tip.
With B2, the equilibrium dissociation constant (Kd) was 0.302 nM, the koff came to 0.000289 s⁻¹ and the kon was 958000 M⁻¹ s⁻¹.

B3 gave a dissociation constant Kd of 0.214 nM, an off-rate constant (koff) of 0.00021 s⁻¹ and a kon of 980000 M⁻¹ s⁻¹.

In the case of B4, the Kd is 0.16 nM, the koff turned out to be 0.000165 s⁻¹ and the kon is 1.03e+06 M⁻¹ s⁻¹.

Molecule B5 had a Kd of 0.452 nM, an off-rate constant (koff) of 0.000477 s⁻¹ and a kon of 1.06e+06 M⁻¹ s⁻¹.

In the case of B6, the Kd came to 0.243 nM, the dissociation rate constant (koff) was 0.00025 s⁻¹ and the association rate constant (kon) came to 1.03e+06 M⁻¹ s⁻¹.
